The record followed here is article PMC8557139, “Characterization of a thermotolerant aryl-alcohol oxidase from Moesziomyces antarcticus oxidizing 5-hydroxymethyl-2-furancarboxylic acid” (Applied Microbiology and Biotechnology, 2021).

Data set [1] deals with T1, MaAAO (Moesziomyces antarcticus, UniProt A0A081CNK9).
T1 construct: gene PAN0_057d6495; expressed with native signal peptide, secreted from Pichia pastoris X-33 (pPICZA); purified; non-covalent FAD; codon-optimised synthetic gene
T1 sequence (A0A081CNK9 20-638): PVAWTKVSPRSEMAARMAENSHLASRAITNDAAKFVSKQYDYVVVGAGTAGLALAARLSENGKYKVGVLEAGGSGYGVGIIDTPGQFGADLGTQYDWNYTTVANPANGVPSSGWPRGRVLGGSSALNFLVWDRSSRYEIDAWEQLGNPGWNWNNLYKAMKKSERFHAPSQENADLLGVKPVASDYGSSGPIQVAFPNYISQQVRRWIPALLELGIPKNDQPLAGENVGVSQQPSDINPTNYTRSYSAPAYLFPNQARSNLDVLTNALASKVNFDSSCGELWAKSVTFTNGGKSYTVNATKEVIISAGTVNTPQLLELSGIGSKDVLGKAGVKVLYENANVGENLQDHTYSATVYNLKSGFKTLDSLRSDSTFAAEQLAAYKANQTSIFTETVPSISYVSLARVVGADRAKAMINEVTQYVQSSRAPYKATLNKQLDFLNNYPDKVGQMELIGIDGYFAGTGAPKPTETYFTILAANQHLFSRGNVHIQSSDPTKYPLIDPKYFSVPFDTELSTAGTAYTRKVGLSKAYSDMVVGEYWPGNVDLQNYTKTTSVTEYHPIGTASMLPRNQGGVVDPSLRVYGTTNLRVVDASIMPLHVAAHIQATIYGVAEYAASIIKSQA
The experiment in a line: m-anisaldehyde formation at […] nm; substrate excess inhibition fit. The data set is classed as biochemical. The following applies: co-substrate O2, 100 mM phosphate pH 6.0, 25 °C.

Data set [2] deals with T1, MaAAO. Briefly: UV/Vis spectrum of native and heat-denatured enzyme. The conditions noted are these: non-covalently bound. The data set is classed as binding.
Data set [3] addresses T1, MaAAO. Briefly: benzaldehyde formation at […] nm; substrate excess inhibition fit. The data set is classed as biochemical. The conditions noted are these: co-substrate O2, 100 mM phosphate pH 6.0, 25 °C.
Data set [4] has as its target T1, MaAAO. The experiment in a line: coupled […],6-DMP-HRP assay; substrate excess inhibition fit. The conditions noted are these: co-substrate O2, potassium phosphate pH 6.0, 25 °C. The data set is classed as biochemical.
Substrate in data set [5]: C/C=C/C=C/CO
The experiment in a line: purified protein. The following applies: co-substrate O2, 100 mM phosphate pH 6.0, 25 °C. It is filed as biochemical, Moesziomyces antarcticus.

Substrate in data set [6]: C=C(C)[C@@H]1CC=C(CO)CC1
Briefly: purified protein. It is filed as biochemical, Moesziomyces antarcticus. The following applies: co-substrate O2, 50 mM (text: 100 mM) potassium phosphate pH 6.0, 25 °C.

Substrate in data set [7]: COc1cc(CO)ccc1O
Briefly: purified protein. It is filed as biochemical, Moesziomyces antarcticus. The conditions noted are these: co-substrate O2, 100 mM phosphate pH 6.0, 25 °C.

Substrate in data set [8]: COc1ccc(CO)c(OC)c1
Briefly: purified protein. The data set is classed as biochemical, Moesziomyces antarcticus. The following applies: co-substrate O2, 100 mM phosphate pH 6.0, 25 °C.

Substrate in data set [9]: COc1ccc(CO)cc1O
The experiment in a line: purified protein. The data set is classed as biochemical, Moesziomyces antarcticus. The conditions noted are these: co-substrate O2, 100 mM phosphate pH 6.0, 25 °C.

Substrate in data set [10]: COc1ccc(CO)cc1OC
Briefly: purified protein. It is filed as biochemical, Moesziomyces antarcticus. The following applies: co-substrate O2, 100 mM phosphate pH 6.0, 25 °C.

Substrate in data set [11]: Nc1cccc(CO)c1
The experiment in a line: purified protein. The data set is classed as biochemical, Moesziomyces antarcticus. The following applies: co-substrate O2, 50 mM (text: 100 mM) potassium phosphate pH 6.0, 25 °C, fit with substrate excess inhibition.

Substrate in data set [12]: O=Cc1ccc(CO)o1
The experiment in a line: purified protein. The following applies: co-substrate O2, 50 mM (text: 100 mM) potassium phosphate pH 6.0, 25 °C. It is filed as biochemical, Moesziomyces antarcticus.

Substrate in data set [13]: OC/C=C/c1ccccc1
The experiment in a line: purified protein. The following applies: co-substrate O2, 100 mM phosphate pH 6.0, 25 °C. The data set is classed as biochemical, Moesziomyces antarcticus.

Substrate in data set [14]: OCc1ccc2c(c1)OCO2
Briefly: purified protein. It is filed as biochemical, Moesziomyces antarcticus. The following applies: co-substrate O2, 100 mM phosphate pH 6.0, 25 °C.

Substrate in data set [15]: OCc1ccccc1
The experiment in a line: purified protein. The data set is classed as biochemical, Moesziomyces antarcticus. The conditions noted are these: co-substrate O2, 100 mM phosphate pH 6.0, 25 °C, fit with substrate excess inhibition.

One may read the Km as the concentration of substrate that gives half-maximal velocity. As a reminder, the kcat is the number of substrate molecules converted per active site and unit of time at saturation. One may read the kcat/Km as the turnover number divided by the Michaelis constant.

Turning to `COc1cccc(CO)c1` [m-Anisyl alcohol], the KIU on MaAAO [1] is given as 2.09 ± 0.33 mM.
For the molecule `Cc1cc2nc3c(=O)[nH]c(=O)nc-3n(C[C@H](O)[C@H](O)[C@H](O)COP(=O)(O)OP(=O)(O)OC[C@H]3O[C@@H](n4cnc5c(N)ncnc54)[C@H](O)[C@@H]3O)c2cc1C` [FAD], at MaAAO [2], the “UV/Vis spectrum of native and heat-denatured enzyme” value is “confirmed that MaAAO contains a non-covalently bound FAD cofactor”.
Take `OCc1ccccc1` [Benzyl alcohol]: the KIU on MaAAO [3] was determined as 1.39 ± 0.35 mM.
As for `Nc1cccc(CO)c1` [3-Aminobenzyl alcohol], on MaAAO [4], the KIU is recorded as 3.27 ± 0.98 mM.

B1: MaAAO (Moesziomyces antarcticus) (protein)
chain: T1 sequence (A0A081CNK9 20-638)
notes: expressed with native signal peptide, secreted from Pichia pastoris X-33 (pPICZA); purified; non-covalent FAD; codon-optimised synthetic gene
B1: the Km in the data set “purified protein [5]” amounted to 26.5 ± 1.7 µM; in “purified protein [6]”, 23.7 ± 1.7 µM; in the data set “purified protein [7]”, 30.0 ± 2.4 µM; in the data set “purified protein [8]” it was 582 µM; in the data set “purified protein [9]”, 60.9 ± 6.7 µM; in the data set “purified protein [10]” it was 119.0 ± 7.0 µM. The Michaelis-Menten constant (Km) is 1.74 ± 0.24 µM in “purified protein [11]”, 341 ± 20 µM in “purified protein [12]”, 26.9 µM in the data set “purified protein [13]” and 12.2 ± 1.0 µM in the data set “purified protein [14]”. Moreover, the turnover number (kcat) came to 11.5 s⁻¹ in “purified protein [5]”; 9.2 s⁻¹ in “purified protein [6]”; 10.6 s⁻¹ in “purified protein [7]”; 9.6 s⁻¹ in the data set “purified protein [9]”; 11.7 s⁻¹ in “purified protein [10]”; 6.4 s⁻¹ in the data set “purified protein [11]”. For the same molecule, the kcat was 5.4 s⁻¹ in “purified protein [12]”, 8.9 s⁻¹ in “purified protein [13]”, 11.3 s⁻¹ in “purified protein [14]” and 11.2 s⁻¹ in the data set “purified protein [15]”. In addition, the kcat/Km in “purified protein [5]” stood at 435000 M⁻¹ s⁻¹; in “purified protein [6]” it was 387000 M⁻¹ s⁻¹; in the data set “purified protein [7]”, 354000 M⁻¹ s⁻¹; in “purified protein [9]”, 158000 M⁻¹ s⁻¹; in “purified protein [10]” it was 98000 M⁻¹ s⁻¹; in the data set “purified protein [11]” it was 3.67e+06 M⁻¹ s⁻¹. Further, the kcat/Km in “purified protein [12]” worked out at 15700 M⁻¹ s⁻¹; in the data set “purified protein [13]”, 332000 M⁻¹ s⁻¹; in “purified protein [14]”, 926000 M⁻¹ s⁻¹; in the data set “purified protein [15]” it was 745000 M⁻¹ s⁻¹.
